# Source: patent US20220267403A1 (FRED HUTCHINSON CANCER RESEARCH CENTER, published 2022)
# T1: 5T4 17-25 variant R1A (alanine-substituted) peptide on HLA-A*02:01 (human)
# T1 peptide: ALARLALVL
# T2: 5T4 17-25 variant R4A (alanine-substituted) peptide on HLA-A*02:01 (human)
# T2 peptide: RLAALALVL
# T3: DDX3Y peptide on HLA-A*02:01 (human)
# T3 peptide: FLLDILGAT
# T4: UTY peptide on HLA-A*02:01 (human)
# T4 peptide: KAFQDVLYV
# T5: 5T4 (trophoblast glycoprotein, TPBG) peptide on HLA-A*02:01 (human)
# T5 peptide: RLARLALVL
# What was measured:
# [1] = target: T6, HLA-A*0201 on the surface of T2 cells (human); assay: HLA-A2 stabilization on T2 cells, BB7.2 staining, flow cytometry
# T6 construct: Class I molecule that the test peptides load in the HLA-A2 stabilization assay; also called HLA-A2
# Procedure: Aliquots of 2×10⁵ T2 cells were cultured in serum-free RPMI media supplemented with human β₂-microglobulin at 5 μg/mL plus the test peptide.
# [2] = target: T1, 5T4 17-25 variant R1A …; assay: killing
# [3] = target: T2, 5T4 17-25 variant R4A …; assay: killing
# [4] = target: T3, DDX3Y peptide on HLA-A*02:01; assay: killing
# [5] = target: T4, UTY peptide on HLA-A*02:01; assay: killing
# [6] = target: T5, 5T4 (trophoblast glycoprotein, TPBG) …; assay: multimer staining
Binder,binding result [1],binding result [2],binding result [3],binding result [4],binding result [5],binding result [6]
RLARAALVL (Alanine-substituted variant of 5T4p17) [L5A synthetic peptide RLARAALVL],no binding,,,,,
RLARLAAVL (Alanine-substituted variant of 5T4p17) [L7A synthetic peptide RLARLAAVL],no binding,,,,,
ALARLALVL (Alanine-substituted variant of 5T4p17) [R1A synthetic peptide ALARLALVL],binds,,,,,
RLAALALVL (Alanine-substituted variant of 5T4p17) [R4A synthetic peptide RLAALALVL],binds,,,,,
RLARLALAL (Alanine-substituted variant of 5T4p17) [V8A synthetic peptide RLARLALAL],no binding,,,,,
"Clone2-6B8 (TCR, V domains shown) Valpha: QKEVEQNSGPLSVPEGAIASLNCTYSDRGSQSFFWYRQYSGKSPELIMFIYSNGDKEDGRFTAQLNKASQYVSLLIRDSQPSDSATYLCAVPDDAGNMLTFGGGTRLMVKP Vbeta: DAGITQSPRYKITETGRQVTLMCHQTWSHSYMFWYRQDLGHGLRLIYYSAAADITDKGEVPDGYVVSRSKTENFPLTLESATRSQTSVYFCASSELPAGGTNEQFFGPGTRLTVL",,recognises,no recognition,no recognition,no recognition,recognises
"Clone3-6C3 (TCR, V domains shown) Valpha: AQTVTQSQPEMSVQEAETVTLSCTYDTSESDYYLFWYKQPPSRQMILVIRQEAYKQQNATENRFSVNFQKAAKSFSLKISDSQLGDAAMYFCSSGGGADGLTFGKGTHLIIQP Vbeta: NAGVTQTPKFRVLKTGQSMTLLCAQDMNHEYMYWYRQDPGMGLRLIHYSVGEGTTAKGEVPDGYNVSRLKKQNFLLGLESAAPSQTSVYFCASMDLAFKQYFGPGTRLTVT",,no recognition,no recognition,no recognition,no recognition,recognises
"Clone15-3F10 (TCR, V domains shown) Valpha: AQTVTQSQPEMSVQEAETVTLSCTYDTSENNYYLFWYKQPPSRQMILVIRQEAYKQQNATENRFSVNFQKAAKSFSLKISDSQLGDTAMYFCASMYSGGGADGLTFGKGTHLIIQP Vbeta: EAQVTQNPRYLITVTGKKLTVTCSQNMNHEYMSWYRQDPGLGLRQIYYSMNVEVTDKGDVPEGYKVSRKEKRNFPLILESPSPNQTSLYFCASSFFSNTGELFFGEGSRLTVL",,recognises,no recognition,no recognition,no recognition,recognises
"Clone19-5C2 (TCR, V domains shown) Valpha: AQTVTQSQPEMSVQEAETVTLSCTYDTSESDYYLFWYKQPPSRQMILVIRQEAYKQQNATENRFSVNFQKAAKSFSLKISDSQLGDAAMYFCAYRSGSDGGSQGNLIFGKGTKLSVKP Vbeta: ETGVTQTPRHLVMGMTNKKSLKCEQHLGHNAMYWYKQSAKKPLELMFVYSLEERVENNSVPSRFSPECPNSSHLFLHLHTLQPEDSALYLCASSQVSGYEQYFGPGTRLTVT",,no recognition,no recognition,no recognition,no recognition,recognises
"Clone21-7A10 (TCR, V domains shown) Valpha: GQSLEQPSEVTAVEGAIVQINCTYQTSGFYGLSWYQQHDGGAPTFLSYNALDGLEETGRFSSFLSRSDSYGYLLLQELQMKDSASYFCAVRDDYGQNFVFGPGTRLSVLP Vbeta: NAGVMQNPRHLVRRRGQEARLRCSPMKGHSHVYWYRQLPEEGLKFMVYLQKENIIDESGMPKERFSAEFPKEGPSILRIQQVVRGDSAAYFCASSPQGDNEQFFGPGTRLTVL",,recognises,no recognition,no recognition,no recognition,recognises
